Columns and labels:
[1] = system: murine mast cell line, MC/9; assay: MC/9 ^3H-thymidine uptake assay; assay type: cell-based; details: typical
Description: Another useful biological activity of both naturally-derived and recombinant rat SCF is the ability to cause the proliferation of the […] murine mast cell line, MC/9 (ATCC CRL 8306). MC/9 cells are cultured with a source of […] according to the ATCC CRL 8306 protocol. The medium used in the bioassay is RPMI 1640, 4% fetal bovine serum, 5×10^−5M 2-mercaptoethanol, and 1× glutamine-pen-strep. The MC/9 cells proliferate in response to SCF without the requirement for other growth factors. This proliferation is measured by first culturing the cells for 24 h without growth factors, plating 5000 cells in each well of 96 well plates with test sample for 48 h, pulsing for 4 h with 0.5 uCi ^3H-thymidine (specific activity 20 Ci/mmol), harvesting the solution onto glass fiber filters, and then measuring specifically-bound radioactivity. This assay was used in the purification of mammalian cell derived rat SCF after the ACA 54 gel filtration step, section C2 of this Example. Typically, SCF caused a 4–10 fold increase in CPM over background.

[2] = system: bone marrow cells (CFU-S); assay: pre-CFU-S assay; assay type: cell-based, mouse
Description: The in vitro survival and proliferation of primitive stem cells is critical to the success of gene transfer mediated by retroviral insertion or other known methods of gene transfer. The effect of SCF on the in vitro maintenance and/or proliferation of primitive progenitor cells has been studied in two systems which have been described previously [Bodine et al., Proc. Natl. Acad. Sci. 86 8897–8901, 1989]. The first is a pre-CFU-S assay wherein bone marrow cells are incubated for up to six days in suspension culture in the presence of growth factors. Aliquots are injected into lethally iradiated mice and the mice sacrificed at 12–14 days for quantitation of spleen focus formation. […] The second is a competitive repopulation assay which measures the effects of growth factors on recovery and biological activity of cells capable of sustaining long-term hematopoiesis. Cells from two congenic strains of mice differing for a hemoglobin marker are incubated in suspension independently, cells from one strain as a control and cells from a second under experimental conditions. After incubation, equal numbers of bone marrow cells from both cultures are mixed and injected into W/W^v recipients.

[3] = system: normal mouse bone marrow; assay: CFU-GM assay on normal mouse bone marrow; assay type: cell-based; details: 10 day period, no other factors
Description: The action of purified mammalian SCF, both naturally-derived and recombinant, free from interfering colony stimulating factors (CSFs), on normal undepleted mouse bone marrow has been ascertained. A CFU-GM assay [Broxmeyer et al. Exp. Hematol., 5, 87 (1977)] is used to evaluate the effect of SCF on normal marrow. Briefly, total bone marrow cells after lysis of red blood cells are plated in semi-solid agar cultures containing the test substance. After.10 days, the colonies containing clusters of >40 cells are scored. The agar cultures can be dried down onto glass slides and the morphology of the cells can be determined via specific histological stains.

[4] = system: 5-FU treated mouse bone marrow cells; assay: HPP-CFC assay; assay type: cell-based; details: typical assay; plated with CSF-1 or IL-6
Description: There are a variety of biological activities which can be attributed to the natural mammalian rat SCF as well as the recombinant rat SCF protein. One such activity is its effect on early hematopoietic cells. This activity can be measured in a High Proliferative Potential Colony Forming Cell (HPP-CFC) assay [Zsebo, et al., supra (1988)]. To investigate the effects of factors on early hematopoietic cells, the HPP-CFC assay system utilizes mouse bone marrow derived from animals 2 days after 5-fluorouracil (5-FU) treatment. […] The rat SCF is plated in the presence of CSF-1 or IL-6 in semi-solid agar cultures. The agar cultures contain McCoys complete medium (GIBCO), 20% fetal bovine serum, 0.3% agar, and 2×10^5 bone marrow cells/ml. The McCoys complete medium contains the following components: 1× McCoys medium supplemented with 0.1 mM pyruvate, 0.24× essential amino acids, 0.24× non-essential amino acids, 0.027% sodium bicarbonate, 0.24× vitamins, 0.72 mM glutamine, 25 μg/ml L-serine, and 12 μg/ml L-asparagine. The bone marrow cells are obtained from Balb/c mice injected i.v. with 150 mg/kg 5-FU. The femurs are harvested 2 days post 5-FU treatment of the mice and bone marrow is flushed out. The red blood cells are lysed with red blood cell lysing reagent (Becton Dickenson) prior to plating. Test substances are plated with the above mixture in 30 mm dishes. Fourteen days later the colonies (>1 mm in diameter) which contain thousands of cells are scored. This assay was used throughout the purification of natural mammalian cell-derived rat SCF.

B1: rat SCF: rat stem cell factor, natural (purified from BRL 3A conditioned medium) or recombinant; form not specified at the place (protein, UniProt P21581 26-190, looked up)
Soluble KIT ligand: QEICRNPVTDNVKDITKLVANLPNDYMITLNYVAGMDVLPSHCWLRDMVTHLSVSLTTLLDKFSNISEGLSNYSIIDKLGKIVDDLVACMEENAPKNVKESLKKPETRNFTPEEFFSIFNRSIDAFKDFMVASDTSDCVLSSTLGPEKDSRVSVTKPFMLPPVAA
[1]
  increase in CPM over background: 4–10 fold
[2]
  activity in the pre-CFU-S assay: very little activity
[3]
  colonies from 200,000 cells plated: over 100
[4]
  HPP-CFC per 200,000 cells plated: approximately 50
